From the nanobody polyreactivity screen of Harvey et al. (2022)

Test: yeast display, Sf9 membrane polyspecificity reagent, FACS + sequencing; frameworks hold sequencing errors
How it was run: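 In a synthetic yeast display library (Saccharomyces cerevisiae BJ5465), nanobody expression was induced with galactose for 36–48 hours. FACS gates were set low and high (top ~1%) using anti-HA fluorescence for expression and streptavidin fluorescence for binding of the Sf9 membrane reagent. Each polyreactivity label is drawn from the gate of origin.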

Row | Sequence | polyreactivity (PSR sort gate)
1 | QVQHEESGGGLVQAGGSLRLICAASGRTFADNAMGWYRQAPGTERELVPSISSVTSTNYADSVKGRFTISRDNAKYTVYFQMNSLKPEDPAVYDCNAYGPIWYTAVLGFGRYYGWTDYWGQGTQVTVSS | low polyreactivity
2 | QVQLVESGGGLVQAGGSLRLSCAASGSIFIYYSMGWYRQAPGKERELVAAISWSGGDTYYADSVKGRFTISRDNAKNTVYLQMNSLKPEDTAVYYCAADSVTRPAGDYWGQGTQVTVSS | low polyreactivity
3 | QVQIVESGGGLVQAGGSLRLSCAASGLTFYQNAMGWYRQAPGKERELVAAITRSGGSTYYADSVKGRFTISRDNAKNTVYLQMNSLKPEDTAVYYCAARGGLSRRYEYWGQGTQVTVSS | high polyreactivity
4 | QVQLVESGGGLVQAGGSLRFSCAASGRIFGRYAMGWYRQAPGKERELDAAISYSGGSTYYADSVKGRFTISRDNAKNTVYLQMNSLKPEDTAVYYCAVVVYQYTPSQRFYYWGQGTQVTVSS | high polyreactivity
5 | QVQLVESGGGLVQAGGSLRLSCADSGITFSVYAMGWYRQAPGKERELVASISSGGTSTYYADSVKGRFTISRDNAKNTVYLQMNSQKPEDTAVYYCAAYSYYTGDQYSYDYWGQGTQVTVSS | low polyreactivity
6 | QVQLVESGGGLVQAGGSLRLSCAASGSILSYYVMGWYRQAPGKERELVAAITSDGSTNYADSVKGRFTISRDNAKNTVYLQMNSQKPEDTAVYYCAAVIAWYYGVQDVYYLGLYDYWGQGTQVTVSS | low polyreactivity
7 | QVQLVESGGGLVQAGGSLRLSCAASGLTLRNYAMGWYRQAPGKERELVARITTGGSTHYADSVKGRFTISRDNAKNTVSLQMHSLKPEDTAVYYCNTGPYTFVSPEYYYWGQGTQVTVSS | low polyreactivity
8 | QVQLVESGGGLVQAGGSLRLSCAASGIIFPYYAMGWYRQAPGKERELVAGISSSGGITYADSVKGRFTISRDNAKNTVYLQMNSLKPEDTAVYYCAARYPARGTLYYWGQGTQVTVSS | low polyreactivity
9 | QVQLVESGGGLVQAGGSLRLSCAASGSIFLNNAMGWYRQAPGKERELVAAITRNVGSTYYADSVKGRFTISRDNAKNTVYLQMNSLKPEDSAVYYCAADRRRRYDYWGQGTQVTVSS | low polyreactivity
10 | QVQLVESGGGLVQAGGSLRLSCAASGIIFGTNAMGWYRQAPGKERELVAGITSSGDSTYYADSVKGRFTISRDNAKNTVYLQMNSLKPEDTAVYYCARDIRTREFDSWGQGTQVTVSS | low polyreactivity
11 | QVQLVESGGGLVQAGGSLRLSCAASRFTFLTNAMGWYRKAPGTERELVAAISSGGNTNYADSVKGRFTISRDNAKNTVYLQMNSLKPEDTAVYYCAADNDYLSSQVSYDYWGQGTQVTVSS | low polyreactivity
12 | QVQLVESGGGLVQAGGSLRLSCAASGRIFRRYASGWYRQAPGKEMELDADITYGVDSTYYADSVKGRFTISRDNAKNTVYLQMNSLKPEDTAVYYCIADRTEDMLYRFVGVTYGYWGQGTQVTVSS | high polyreactivity
13 | QVQLVESGGGLVQAGGSLRLSCAASGRIFGENAMGGYRQAPGKEREFVAVISISDASTYYADSVKGRFTISRDNAKNTVYLQMNSLKPEDTAVYYCAADLTDFLYVASDYWGQGTQVTVSS | low polyreactivity
14 | QVQLVESGGGLVQAGGSLRLSCAASGLTFRDNAMGWYRQAPGTERELVATMNSGGSTDYADSVKGRFTISRHNAKNTVYLQMNSLKPEDTAVYYCAVYREYYDRGWYSIFYWYDYWGQGTQVTVSS | low polyreactivity
15 | QVQLVESGGGLVQAGGSLRLSCAASGRTIVYNAMGWYRQAPGKESELVAAITSGGRTYYADSVKGRFTISRDNAKNTVYLQMNSVKPEDTAVYYCATDYYGPDYPLDYWGQGTQVTVSS | low polyreactivity
16 | QFQLLESGGGLVQAGGSLRLSCAASGSTFSLTTMGWYRPAPGKERELVAAINSGGSTYYADSVKGRFTISRDNAKNTVYLKMNSLKPEDTAVYYCAARTKYFGRFDYWGQGTQVTVSS | low polyreactivity

Row | Sequence | polyreactivity (PSR sort gate)
17 | QVQLVESGGGLVQAGGSLRLSCAASGITFSWYAMGWYRQAPGKEREFVATISASGGSTYYADSVKGRFTISRDNAKNTVYLQMNSLKAEDTAVYYCAAVIWYRNGARGTFDYWGQGTQETVSS | high polyreactivity
18 | QVQLVESGGGLVQAGGSLRLSCAASGSIFTPNTMGWYRQAPGKEREFVAAITFSGGSTYYADSVKGRFTISRDNAKNTVYLQMNSLKPEDTAVYYCAAVYPTYDWYTPAYYYWGQGTQVTVSS | low polyreactivity
19 | QVQLVESGGGLVQAGGSLRLICAASGLTFTYYAMGWYRQAPGKERELVATISSSGRTNYADSVKGRFTISRDNAKNTVYLQMNSLKPEDTAVYYCAATLYHYWYADFDYWGQGTQVTVSS | high polyreactivity
20 | QVQLVESGGGLVQAGGSLRLSCAASGRTFRSYTMGWYRQAPGKERELVAAIRTSSGSTYYADSVKGRFTISRDNAKNTVYLQMNSLKPEDSGVYYGAKTLLYPWFRTVAVDYWGQGTQVTVSS | low polyreactivity
21 | QVQLVESGGGLVQAGGSLRLSCAASGSIFFGNAMGLYRQAPGKERELVAAISTTGGSTYYADSVKGRFTISRDNAKNTVYLQMNSLKPEDTAVYYCNADRATWWEQWWYDYWGQGTQVTVSS | low polyreactivity
22 | QVQLVESGGGLVQAGGSLRLTCAASGIIFKQNVKGWYRKAPGKESELVAAITSRDGTTYYADSVKGRFTISRDNAKNTVYLQMNSLKPEDTAVYYCATLFKSGSYKYGYWGQGTQVTVSS | high polyreactivity
23 | QVQLVESGGGLVQAGGSLRLSCAASVRIFRINTMGWYRQAPGKERELVAAIRTSGSSTYADSVKGRFTISRDNAKNTVYLQMNSLKPEDTAVYYCNTKYPGRGYYWGQGTQVTVSS | high polyreactivity
24 | QVQLVESGGGLVQAGGSLRLSCAASGRIISSYAMGWYRQAPGKERELVAAITSSGGSTYYADSVKGRFTISRDNAKNTVYLQMNSLKPEDTAVYYCAARVFARYYTAYGVETRREEDYWGQGTQVTVSS | low polyreactivity
25 | QVQHVESGVGLVQAVGSLRLSCAASGLTFKYYAMGWYRQAAVKEWELVARLSRTGGSTNYADSVKGRFTISRDNAKNTLYLQMNSLKPEDTAVSYCNTQFSYSSAPPFWYTKMYYWGQGTQVTVSS | high polyreactivity
26 | QVQLVESGGCLVQAGGSLRLSCAASGRTYQNNAMGWYRQAPGKERELVAAISRSGASTYYADSVKGRFTISRDNAKNTVYLQMNSLKPEDTAVYYCAARYPRTAYDYWGQGTQVTVSS | low polyreactivity
27 | QVQLVESGGGLVQAGGSLRLSCAASGFTFYGYAMGWYRQAPGKERELVAAITSGGSTNYADSVKGRFTISRDNAKNTVYLQMNSLKPEDTAVYYCAASPSYWYLYVNYSYDYWGQGTQVTVSS | high polyreactivity
28 | QDQLVESGGGLVQAGGSLRLSCAASGSTFSFYAMGWTRQAPGKERELVAAISRSGGSTFYADSVKGRFTISRDNAKNTVYLQMNSLKPEDSAVYYCAAYGGLQSRYYYWGQGTQVTVSS | high polyreactivity
29 | QVQLVQSGGGLVQAGGILRLSCAASVSTLFGYAMGWYRQAPGKERELVAAINTGGSTNDADSVKGRFTISRDNAKNTVYVQMNSLKPEDTAVYYCAADYEWDAFAYDYWGHGTQVTVSS | low polyreactivity
30 | QVQLVESGGGLVQAGGSLRLICAASGSTFKGYAMGWYIQSPGKERELVAAISWPGGRTSYADSVKGRFTISRDNAKNTVYLQMNSLKPEDTAVYYCNKAWWVQKGYFFYYWEQGTQVTVSS | high polyreactivity
31 | QVQLVESGGGLVQAGGRLRLICAASGSTFVINDMGWYRQAPGKERELVASISWSGGDTYYADSVKGRFTISRDNAKNTVYLQMNSLKPEDTAVYYCNRVSPYGSYDYWGQGTQVTVSS | low polyreactivity
